Measured values reported in patent publication US20220411531A1 (SUMGEN MAB BEIJING BIOTECH, published 2022).

Legend:
[1] = target: T1, TYRO3-Fc (ACRO Biosystems) (UniProt Q06418 41-428, limits assumed); test: ELISA, TYRO3-Fc coated at 1 µg/ml, anti-human IgG Fab-HRP, OD450
T1 construct: Bought reagent; also called TRYO3; not shown: Fc part
T1 sequence (looked up): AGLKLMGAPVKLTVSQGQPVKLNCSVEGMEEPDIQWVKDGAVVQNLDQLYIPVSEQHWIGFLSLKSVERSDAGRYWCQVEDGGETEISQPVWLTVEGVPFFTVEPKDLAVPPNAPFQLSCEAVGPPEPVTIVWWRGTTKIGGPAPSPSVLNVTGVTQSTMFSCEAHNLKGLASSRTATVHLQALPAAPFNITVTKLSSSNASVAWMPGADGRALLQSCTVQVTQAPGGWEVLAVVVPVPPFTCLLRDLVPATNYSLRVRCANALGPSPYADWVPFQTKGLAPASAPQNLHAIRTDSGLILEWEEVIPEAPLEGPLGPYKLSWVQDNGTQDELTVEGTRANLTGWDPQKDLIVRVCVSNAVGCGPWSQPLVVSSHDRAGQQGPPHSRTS
Procedure: (§1) AXL, TRYO3, and MER are all members of the TYRO3 receptor tyrosine kinase subfamily. To verify the recognition specificity of the antibodies 6G12M11, 6G12M21, 6G12M31 and 6G12M41, the binding ability of these antibodies to other members of the AXL family is tested by the ELISA method.
(§2) TYRO3-Fc (ACRO Biosystems), MER-His (ACRO Biosystems), and AXL-His (Sino Biological Inc.) each were coated at 1 μg/ml on an ELISA strip, which was held at 4° C. overnight. After the ELISA strips were washed with PBST, 10% fetal bovine serum was added to the ELISA strip, which was blocked for 1 hour at 37° C. Antibodies […], 6G12M21, 6G12M31 and 6G12M41 were added to react at 37° C. for 1 hour. After the ELISA strips were washed with PBST, horseradish peroxidase-labeled goat anti-human IgG Fab secondary antibodies (Goat Anti-Human IgG (Fab′)₂ (HRP), Abcam) were added to react for 30 minutes at 37° C. The ELISA strips were washed 5 times with PBST, and patted and dried on absorbent paper to remove residual droplets as much as possible. 100 μl of TMB (eBioscience, #85-00-420) was added to each well, and the ELISA strips were held for 1.5 min at room temperature (20±5° C.) in the dark. 100 μl of 2N H₂SO₄ stop solution was added to each well to terminate substrate reaction. The OD value was read at 450 nm by a microplate reader to analyze the binding ability of antibodies to the proteins.

[2] = target: T2, MER-His (ACRO Biosystems) (UniProt Q12866 21-499, limits assumed); test: ELISA, MER-His coated at 1 µg/ml, anti-human IgG Fab-HRP, OD450
T2 construct: Bought reagent; not shown: His tag
T2 sequence (looked up): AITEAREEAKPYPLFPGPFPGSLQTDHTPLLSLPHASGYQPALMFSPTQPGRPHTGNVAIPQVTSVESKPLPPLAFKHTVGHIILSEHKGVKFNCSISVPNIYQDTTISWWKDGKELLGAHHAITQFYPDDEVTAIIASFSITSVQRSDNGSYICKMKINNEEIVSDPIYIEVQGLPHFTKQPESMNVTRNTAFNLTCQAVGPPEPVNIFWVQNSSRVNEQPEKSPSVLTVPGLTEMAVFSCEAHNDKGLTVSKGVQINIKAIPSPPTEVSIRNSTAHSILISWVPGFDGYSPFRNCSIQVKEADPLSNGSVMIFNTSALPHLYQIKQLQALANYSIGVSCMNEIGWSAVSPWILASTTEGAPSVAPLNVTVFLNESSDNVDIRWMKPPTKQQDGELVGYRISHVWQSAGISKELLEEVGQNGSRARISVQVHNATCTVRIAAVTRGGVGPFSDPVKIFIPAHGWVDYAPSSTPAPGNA
Procedure: as §1, §2

B1: antibody 6G12M31 (antibody, V domains shown)
VH: QVQLVQSGPGLVKPSQSLSLTCSVTGFSISSGYYWNWIRQFPGQKLEWMGYRSYDGSNNYDPSLKNRISITRDTSKNQFFLKLNSVTSEDTATYYCARGWLLHYTMDYWGQGTTVTVSS
VL: DIVMTQSPSSVSVTLGQSASISCRSSRSLLHSNGFTYLYWYLQKPGQSPQLLIYQMSNLASGVPDRFSGSGSGTDFTLKISRVEAEDVGVYYCGQNLELPLTFGGGTKLEIK
- binding result [1]: no binding (tested: about 1 µg/mL)
- binding result [2]: no binding (tested: about 1 µg/mL)

B2: antibody 6G12M11 (antibody, human IgG1, kappa, V domains shown)
VH: QVQLVQSGPGLVKPSQSLSLTCAVTGFSISSGYYWNWIRQFPGQKLEWMGYRSYDGSNNYNPSLKNRISITRDTSKNQFFLKLNSVTSEDTATYYCARGWLLHYTMDYWGQGTTVTVSS
VL: EIVMTQSPSSVSVTLGQSASISCRSSRSLLHSNGFTYLYWYLQKPGQSPQLLIYQMSNLASGVPDRFSGSGSGTDFTLKISRVEAEDVGVYYCGQNLELPLTFGGGTKLEIKR
- binding result [2]: no binding (tested: about 1 µg/mL)

B3: antibody 6G12M21 (antibody, human IgG1, kappa, V domains shown)
VH: QVQLVQSGPGLVKPSQSLSLTCSVTGFSISSGYYWNWIRQFPGQKLEWMGYRSYDGSNNYNPSLKNRISITRDTSKNQFFLKLNSVTSEDTATYYCARGWLLHYTMDYWGQGTTVTVSS
VL: DIVMTQSPSSVSVTLGQSASISCRSSRSLLHSNGFTYLYWYLQKPGQSPQLLIYQMSNLASGVPDRFSGSGSGTDFTLKISRVEAEDVGVYYCGQNLELPLTFGGGTKLEIKR
- binding result [1]: no binding (tested: about 1 µg/mL)
- binding result [2]: no binding (tested: about 1 µg/mL)

B4: antibody 6G12M41 (antibody, V domains shown)
VH: QVQLVQSGPGLVKPSQSLSLTCSVTGFSISSGYYWNWIRQFPGQKLEWMGYRSYDGSNNYGPSLKNRISITRDTSKNQFFLKLNSVTSEDTATYYCARGWLLHYTMDYWGQGTTVTVSS
VL: DIVMTQSPSSVSVTLGQSASISCRSSRSLLHSNGFTYLYWYLQKPGQSPQLLIYQMSNLASGVPDRFSGSGSGTDFTLKISRVEAEDVGVYYCGQNLELPLTFGGGTKLEIK
- binding result [1]: no binding (tested: about 1 µg/mL)
- binding result [2]: no binding (tested: about 1 µg/mL)
